Data reported in patent US20120009181A1.
Changes are numbered by the printed parent chain. Each block holds one binder with its values, some of them ahead of it.

Legend:
[1] = molecular target: human folate receptor 1 (FOLR1) (human)
[2] = molecular target: human folate receptor 1 (FOLR1) (human); remark: listed apart in the source
[3] = molecular target: human folate receptor 1 (FOLR1) (human); remark: listed apart in the source

B2: huMov19-SPDB-DM4 (antibody, V domains shown)
VH: QVQLVQSGAEVVKPGASVKISCKASGYTFTGYFMNWVKQSPGQSLEWIGRIHPYDGDTFYNQKFQGKATLTVDKSSNTAHMELLSLTSEDFAVYYCTRYDGSRAMDYWGQGTTVTVSS
VL: DIVLTQSPLSLAVSLGQPAIISCKASQSVSFAGTSLMHWYHQKPGQQPRLLIYRASNLEAGVPDRFSGSGSKTDFTLTISPVEAEDAATYYCQQSREYPYTFGGGTKLEIKR
modifications: maytansinoid DM4 linked to the antibody through the SPDB linker, 3.5-4 DM4 per antibody; attachment residues not stated
- IC50, nM (n = 3), Ab-based; in vitro cytotoxicity on JEG-3 cells [2]: 0.2 nM

B3: huMov19-sulfo-SPDB-DM4 (antibody, V domains shown)
VH: B2 VH
VL: B2 VL
modifications: maytansinoid DM4 linked to the antibody through the sulfo-SPDB linker, 3.5-4 DM4 per antibody; attachment residues not stated
- IC50, nM (n = 3), Ab-based; in vitro cytotoxicity on IGROV-1 cells [2]: 0.3 nM

More lines, main results first:

- ADCC, LDH release, percent specific lysis of IGROV-1 cells with human NK effector cells [1]: 30%
- EC50 of ADCC activity on IGROV-1 cells [1]: 0.2 ng/mL
B1: huMov19 (antibody, V domains shown)
VH: B2 VH
VL: B2 VL with T78N

- huAb-smcc-DM1 activity on KB in vitro [3]: 0.1 nM
B4: huMov19-SMCC-DM1 (antibody, V domains shown)
VH: B2 VH
VL: B2 VL with T78N
modifications: maytansinoid DM1 linked to the antibody through the SMCC linker, 3.5-4 DM1 per antibody; attachment residues not stated
- IC50, nM (n = 3), Ab-based; in vitro cytotoxicity on IGROV-1 cells [2]: 1 nM
- IC50, nM (n = 3), Ab-based; in vitro cytotoxicity on JEG-3 cells [2]: 20 nM
- IC50, nM (n = 3), Ab-based; in vitro cytotoxicity on KB cells [2]: 0.1 nM
